B1: E. coli OmpC outer membrane osmoporin channel (natural protein)
chain: AEVYNKDGNKLDLYGKVDGLHYFSDNKDVDGDQTYMRLGFKGETQVTDQLTGYGQWEYQIQGNSAENENNSWTRVAFAGLKFQDVGSFDYGRNYGVVYDVTSWTDVLPEFGGDTYGSDNFMQQRGNGFATYRNTDFFGLVDGLNFAVQYQGKNGNPSGEGFTSGVTNNGRDALRQNGDGVGGSITYDYEGFGIGGAISSSKRTDAQNTAAYIGNGDRAETYTGGLKYDANNIYLAAQYTQTYNATRVGSLGWANKAQNFEAVAQYQFDFGLRPSLAYLQSKGKNLGRGYDDEDILKYVDVGATYYFNKNMSTYVDYKINLLDDNQFTRDAGINTDNIVALGLVYQF
B2: E. coli OmpF porin channel (natural protein)
chain: AEIYNKDGNKVDLYGKAVGLHYFSKGNGENSYGGNGDMTYARLGFKGETQINSDLTGYGQWEYNFQGNNSEGADAQTGNKTRLAFAGLKYADVGSFDYGRNYGVVYDALGYTDMLPEFGGDTAYSDDFFVGRVGGVATYRNSNFFGLVDGLNFAVQYLGKNERDTARRSNGDGVGGSISYEYEGFGIVGAYGAADRTNLQEAQPLGNGKKAEQWATGLKYDANNIYLAANYGETRNATPITNKFTNTSGFANKTQDVLLVAQYQFDFGLRPSIAYTKSKAKDVEGIGDVDLVNYFEVGATYYFNKNMSTYVDYIINQIDSDNKLGVGSDDTVAVGIVYQF
B3: E. coli glutamate decarboxylase GadB (enzyme)
chain: MDKKQVTDLRSELLDSRFGAKSISTIAESKRFPLHEMRDDVAFQIINDELYLDGNARQNLATFCQTWDDENVHKLMDLSINKNWIDKEEYPQSAAIDLRCVNMVADLWHAPAPKNGQAVGTNTIGSSEACMLGGMAMKWRWRKRMEAAGKPTDKPNLVCGPVQICWHKFARYWDVELREIPMRPGQLFMDPKRMIEACDENTIGVVPTFGVTYTGNYEFPQPLHDALDKFQADTGIDIDMHIDAASGGFLAPFVAPDIVWDFRLPRVKSISASGHKFGLAPLGCGWVIWRDEEALPQELVFNVDYLGGQIGTFAINFSRPAGQVIAQYYEFLRLGREGYTKVQNASYQVAAYLADEIAKLGPYEFICTGRPDEGIPAVCFKLKDGEDPGYTLYDLSERLRLRGWQVPAFTLGGEATDIVVMRIMCRRGFEMDFAELLLEDYKASLKYLSDHPKLQGIAQQNSFKHT

Biological target: the molecule itself
Test: cryo-EM structure

Protein	stoichiometry N
B1	3
B2	3
B3	6

— PMC7808410 (Nature methods, 2021)
